Columns and labels:
HUVEC = test: Tube-like structure formation on Matrigel; format: cell-based, human; settings: T5 lenti virus infected HUVEC vs Vo, 24 h and 48 h
Experimental: FIG. 9. A. Tube-like structure formation. Human umbilical vein endothelial cells (HUVEC) were infected with control (Vo) or T5 lenti virus constructs and plated on reconstituted basement membrane (Matrigel). Spontaneous organization into tube-like structures was examined after 24 h (upper panels) and 48 h (lower panels). Note network stabilization upon T5 over expression at 48 h. B Immunofluorescent staining of control (Vo), heparanase-, and T5-infected HUVEC cells applying anti-heparanase 733 antibody (green, left panels). Merged images with nuclear staining (Topro, red) are shown in the right panels. Note T5 localization to endocytic vesicles.

Erk = Erk phosphorylation (immunoblot) in CAG myeloma and 293 cells; format: cell-based, human
Experimental: FIG. 3. T5 augments Src phosphorylation. A. Over expression. CAG myeloma (left) and 293 (right) cells infected with heparanase (Hepa), T5, or control empty vector (Vo) were grown in the absence (−) or presence (+) of heparin (50 μg/ml) under serum-free conditions. Total cell lysates were subjected to immunoblotting applying anti-heparanase 1453 (upper and second panels), anti-phospho-Src (p-Src, third panels), anti-Src (fourth panels) anti-phospho-Erk (p-Erk, fifth panels), and anti-Erk2 (sixth panels) antibodies. Src phosphorylation index was calculated by densitometry analysis of phosphorylated Src levels divided by the total Src values. Data is presented as average fold increase ±SE of Src phosphorylation compared with control, Vo cells, set arbitrary to a value of 1 (lower panels) of five independent experiments. B. Gene silencing. Parental 293 cells were transfected with anti-heparanase, anti-T5, or control siRNAs. Total RNA was extracted and RT-PCR analysis was performed applying T5 (upper panel), heparanase (Hepa, second panel) and GAPDH (third panel) specific primers. Corresponding cell lysates were subjected to immunoblotting applying phospho-Src (p-Src, fourth panel), Src (fifth panel), phospho-Erk (p-Erk, sixth panel) and Erk2 (seventh panel) antibodies. Src phosphorylation index was calculated as above and is shown graphically in the lower panel. […]

[1] = Heparanase activity assay of transfected 293 cell lysates on 35S-labelled ECM; format: biochemical, human
Source text: FIG. 2. Cloning and expression of T5. A. RT-PCR analysis. Total RNA was extracted from the indicated cell line and subjected to RT-PCR analysis applying T5 (upper panel), heparanase (second panel) and GAPDH (third panel) specific primers, specified in the ‘Materials and Methods’ section. B. T5 transfection. […] Control cells were transfected with an empty vector (Vo). Cell lysates (left) and cell conditioned medium (right) were blotted with anti-heparanase 1453 antibody. C. Cellular localization. Stably transfected 293 cells were triple stained for Myc-tag (T5; middle, red), the ER marker calnexin (ER, left, green), and merged with cell nuclei labeled with TO-PRO (right, blue). Cells were similarly stained with anti-Myc-tag (T5; middle, red), the Golgi marker wheat germ agglutinin-FITC (Golgi, left, green) and merged with cell nuclei labeled with TO-PRO (right, blue). […] D. Enzymatic activity. 293 cells transfected with heparanase (Hepa), T5 or control empty vector (Vo) were subjected to three freeze-thaw cycles and applied onto culture dishes coated with ^35S-labelled ECM. Release of sulfate-labeled material eluted in fractions 15-30 was evaluated as measure of heparanase activity, as described in ‘Materials and Methods’. […]

CAG myeloma cells = test: CAG myeloma tumor xenograft development and immunohistochemistry; format: in vivo, athymic nude mice
Experimental: FIG. 5. T5 enhances tumor xenograft development. Control (Vo), heparanase-, and T5-infected CAG myeloma cells were injected subcutaneously (1×10^6/0.1 ml) and tumor volume was calculated (A). At the end of the experiment on day 37, tumors were resected, photographed (A, inset) and weighted (B). C. Immunohistochemical analysis. Paraffin-embedded 5 micron sections were stained with hematoxilin & eosin (left column), anti-CD31 (second left column), and anti-smooth muscle actin (SMA, two right columns) antibodies. Note increased blood vessels density and maturation (recruitment of SMA-positive cells) in xenografts produced by heparanase- and T5-infected cells. Cells from exponential cultures of control-, heparanase-, and T5-infected CAG myeloma cells were detached with trypsin/EDTA, washed with PBS and brought to a concentration of 1×10^7 cells/ml. Cell suspension (1×10 6/0.1 ml) was inoculated subcutaneously at the right flank of 5-weeks old female athymic nude mice (n=7). Xenograft size was determined twice a week by externally measuring tumors in two dimensions using a caliper. At the end of the experiment, mice were sacrificed and xenografts were removed, weighted and fixed in formalin. Paraffin-embedded 5 micron sections were subjected to immunostaining with anti-PECAM-1 (CD31) or anti-smooth muscle actin (1A4, Sigma) antibodies, using the Envision kit, according to the manufacturer's (Dako, Glostrup, Denmark) instructions, as described (Fux, L., et al., 2009, Cancer Res 69, 1758-1767). All animal experiments were approved by the Animal Care Committee of the Technion, Haifa, Israel.

Binding to heparin beads = settings: lysates of over expressing 293 cells, heparin beads
Source text: FIG. 7. […] A. Cell lysates. […] B,C. Peptide analysis. […] C. Enzymatic activity.

B1: T5: novel splice variant of heparanase; truncated, enzymatically inactive 169 amino acid protein (protein, listed as Homo sapiens)
chain: MLLRSKPALPPPLMLLLLGPLGPLSPGALPRPAQAQDVVDLDFFTQEPLHLVSPSFLSVTIDANLATDPRFLILLGSPKLRTLARGLSPAYLRFGGTKTDFLIFDPKKESTFEERSYWQSQVNQDICKYGSIPPDVEEKLRLEWPYQEQLLLREHYQKKFKNSTYSSKK
- endothelial cell organization (tube formation) on Matrigel (HUVEC): maintained for a relatively long period of time
- Erk phosphorylation upon over expression (Erk): not affected
- effect on the activity of endogenous heparanase ([1]; T5 vs. Vo transfected 293 cells): did not seem to significantly impinge on the activity of endogenous heparanase
- heparanase enzymatic activity ([1]; lysates of stably transfected 293 cells, T5 vs. Hepa): lacks heparanase enzymatic activity
- pericytes associated with blood vessels (smooth muscle actin) (CAG myeloma cells; CAG xenografts, immunohistochemistry): significantly increased number of pericytes
- average weight of xenografts (CAG myeloma cells; day 37, subcutaneous infected CAG cells, control 58±11 mg): 738 ± 114 mg
- development of tumor xenografts after day 21 vs control cells (CAG myeloma cells; subcutaneous infected CAG cells): markedly enhanced
- heparin binding of protein in cell lysates (Binding to heparin beads): failed to bind heparin

From patent publication US9428586B2, “Heparanase splice variant” (COMPUGEN LTD, priority 2010, dated 2016)
